Experimental findings from publication PMC3337772 are described below.

Substrate in the data set: NCCc1ccc(O)c(O)c1
Put plainly: [3H]DA uptake kinetics. Type of data set: cell-based, Rattus norvegicus.

B1: dopamine transporter (DAT; rDAT) (Rattus norvegicus) (protein)
chain: MSKSKCSVGPMSSVVAPAKESNAVGPREVELILVKEQNGVQLTNSTLINPPQTPVEAQERETWSKKIDFLLSVIGFAVDLANVWRFPYLCYKNGGGAFLVPYLLFMVIAGMPLFYMELALGQFNREGAAGVWKICPVLKGVGFTVILISFYVGFFYNVIIAWALHYFFSSFTMDLPWIHCNNTWNSPNCSDAHASNSSDGLGLNDTFGTTPAAEYFERGVLHLHQSRGIDDLGPPRWQLTACLVLVIVLLYFSLWKGVKTSGKVVWITATMPYVVLTALLLRGVTLPGAMDGIRAYLSVDFYRLCEASVWIDAATQVCFSLGVGFGVLIAFSSYNKFTNNCYRDAIITTSINSLTSFSSGFVVFSFLGYMAQKHNVPIRDVATDGPGLIFIIYPEAIATLPLSSAWAAVFFLMLLTLGIDSAMGGMESVITGLVDEFQLLHRHRELFTLGIVLATFLLSLFCVTNGGIYVFTLLDHFAAGTSILFGVLIEAIGVAWFYGVQQFSDDIKQMTGQRPNLYWRLCWKLVSPCFLLYVVVVSIVTFRPPHYGAYIFPDWANALGWIIATSSMAMVPIYATYKFCSLPGSFREKLAYAITPEKDHQLVDRGEVRQFTLRHWLLL
As usually defined, the Km is the concentration of substrate that gives half-maximal velocity. Consider B1, for which the Km turned out to be 1.50 ± 0.10 µM.
